Patent US20180179276A1 (NEURIMMUNE, published 2018)

Target: pathological Aβ deposits in a human brain with Alzheimer's disease (human, UniProt P05067 672-713)
Test: not described (human Alzheimer brain tissue)

pathological Aβ deposits in a human brain with Alzheimer's disease, sequence (P05067 672-713): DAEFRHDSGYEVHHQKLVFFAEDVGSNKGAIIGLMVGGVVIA

binding result: no binding
B1: antibody NI-203.26C11 (constant region as tested not stated) (antibody, V domains shown)
VH: QVQLQESGPGLVKPSQTLSLTCTVSGGSISSGNYYWTWIRQPAGKGLEWIGHIYSSGTTNYNPSLESRVTISVDTSKNQFSLSLNSVTAADTAVYYCARPLATVPDAFNIWGQGTMVTVSS
VL: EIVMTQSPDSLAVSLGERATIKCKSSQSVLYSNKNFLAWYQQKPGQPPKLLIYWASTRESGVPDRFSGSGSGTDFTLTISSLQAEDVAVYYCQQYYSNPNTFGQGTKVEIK
notes: also called anti-hIAPP antibody
